Source: US20140154255A1 (AbbVie / Abbott, published 2014)
Changes are numbered by the printed parent chain.

B1: 83 (antibody, human IgG1, V domains shown)
VH: EVQLVESGGGLVQPGGSLRLSCAASGYTFTFYGMNWVRQAPGKGLEWVGWINTYTGEPTYAADFKRRFTFSLDTSKSTAYLQMNSLRAEDTAVYYCAKYPPYDGGSHWYFDVWGQGTLVTVSS
VL: DIQMTQSPSSLSASVGDRVTITCSASQDISNYLNWYQQKPGKAPKVLIYFTSSLHSGVPSRFSGSGSGTDFTLTISSLQPEDFATYYCQQYSTVPWTFGQGTKVEIKR
B2: 86 (seventh row of Table 7) (antibody, human IgG1, V domains shown)
VH: B1 VH with P101H
VL: DIQMTQSPSSLSASVGDRVTITCSASQDISNYLNWYQQKPGKAPKVLIYFTSSLHSGVPSRFSGSGSGTDFTLTISSLQPEDFATYYCQQYSTVPWTFGQGTKVEIK
notes: defined here by its substitutions; copies: 2 + 2
B3: 93 (antibody, human IgG1, V domains shown)
VH: B1 VH with F31N, P101E, D103Y, G105S
VL: B1 VL
B4: 85 (antibody, human IgG1, V domains shown)
VH: B1 VH with P101E, D103E, G105S
VL: B1 VL
B5: 86 (antibody, human IgG1, V domains shown)
VH: B1 VH with P101D, D103E, G105S
VL: B1 VL
B6: 92 (antibody, human IgG1, V domains shown)
VH: B1 VH with F31N, D103Y, G105S
VL: B1 VL
B7: 91 (antibody, human IgG1, V domains shown)
VH: B1 VH with P101H, D103Y, G105S
VL: B1 VL
B8: 87 (antibody, human IgG1, V domains shown)
VH: B1 VH with P101E
VL: B1 VL
B9: 96 (antibody, human IgG1, V domains shown)
VH: B1 VH with D103Y
VL: B1 VL
B10: 89 (antibody, human IgG1, V domains shown)
VH: B1 VH with G105S
VL: B1 VL
B11: 94 (antibody, human IgG1, V domains shown)
VH: B1 VH with P101H, D103Y
VL: B1 VL
B12: 84 (antibody, human IgG1, V domains shown)
VH: B1 VH with D103E, G105S
VL: B1 VL
B13: 90 (antibody, human IgG1, V domains shown)
VH: B1 VH with P101D, D103Y, G105S
VL: B1 VL
B14: T30 W (anti-VEGF IgG) (antibody, V domains shown)
VH: B1 VH with T30W, F31N, P101H, D103Y, G105S
VL: B2 VL
notes: copies: 2 + 2
B15: T30 N (anti-VEGF IgG) (antibody, V domains shown)
VH: B1 VH with T30N, F31N, P101H, D103Y, G105S
VL: B2 VL
notes: copies: 2 + 2
B16: T30 R (anti-VEGF IgG) (antibody, V domains shown)
VH: B1 VH with T30R, F31N, P101H, D103Y, G105S
VL: B2 VL
notes: copies: 2 + 2

Each binder was assayed against T1, VEGF (R&D systems, Minneapolis, Minn.) (UniProt P15692-4 27-191, limits assumed) (assay: BIAcore SPR).
Description: (§1) RL was kept low to minimize avidity due to the dimeric nature of VEGF. No capture of the antibody was made on the reference surface to serve as a negative control. Subsequently, VEGF was injected to all flow cells at a flow rate of 50 μL/min for two minutes to monitor association followed by a 25-minute flow of HBS-P running buffer (10 mM HEPES, 150 mM sodium chloride, 0.005% P-20, pH 7.4) to monitor the dissociation phase. At each cycle, VEGF, in 6 different concentrations of VEGF ranging between 0 nM and 512 nM and at four-fold increments, was injected over the surface. […] Binding data were fit to the 1:1 Langmuir model to extract binding constants from the BIAevaluate software. Double referencing was applied in each analysis to eliminate background responses from the reference surface and buffer only control. All the binding kinetics data were analyzed at least three separate determinations.

T1 sequence (P15692 other isoform, or with tags, fused parts or gaps limits assumed): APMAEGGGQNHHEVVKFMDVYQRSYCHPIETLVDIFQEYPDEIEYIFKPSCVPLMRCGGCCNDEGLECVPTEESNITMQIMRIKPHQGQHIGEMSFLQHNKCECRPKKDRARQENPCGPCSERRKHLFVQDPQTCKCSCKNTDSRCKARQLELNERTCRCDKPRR

Row | Binder | Kd | koff | kon
1 | B1 | 0.106 nM | 0.000194 s⁻¹ | 1.88e+06 M⁻¹ s⁻¹
2 | B2 | 0.282 nM | 0.000273 s⁻¹ | 968000 M⁻¹ s⁻¹
3 | B3 | 0.761 nM | 0.000225 s⁻¹ | 292000 M⁻¹ s⁻¹
4 | B4 | 0.14 nM | 0.000175 s⁻¹ | 1.25e+06 M⁻¹ s⁻¹
5 | B5 | 0.179 nM | 0.000238 s⁻¹ | 1.33e+06 M⁻¹ s⁻¹
6 | B6 | 0.708 nM | 0.000256 s⁻¹ | 367000 M⁻¹ s⁻¹
7 | B7 | 0.575 nM | 0.000121 s⁻¹ | 211000 M⁻¹ s⁻¹
8 | B8 | 0.204 nM | 0.00016 s⁻¹ | 824000 M⁻¹ s⁻¹
9 | B9 | 1.75 nM | 0.000379 s⁻¹ | 225000 M⁻¹ s⁻¹
10 | B10 | 0.282 nM | 0.000249 s⁻¹ | 904000 M⁻¹ s⁻¹
11 | B11 | 0.857 nM | 0.00022 s⁻¹ | 258000 M⁻¹ s⁻¹
12 | B12 | 0.128 nM | 0.000182 s⁻¹ | 1.6e+06 M⁻¹ s⁻¹
13 | B13 | 0.311 nM | 0.000197 s⁻¹ | 645000 M⁻¹ s⁻¹

These binders were tested against T2, human VEGF-A residues 27-191 of Accession #AAV38412 (human, UniProt P15692 27-191) (assay: BIAcore SPR).
T2 construct: range 27-191
Description: (§2) The binding kinetics and affinity of the antibodies for VEGF (human VEGF-A residues 27-191 of Accession #AAV38412) was determined by using a BIAcore T200 surface plasmon resonance system (BIAcore, GE Healthcare, Piscataway, N.J.). Coupling running buffer was HBS-EP+ running buffer (10 mM HEPES, 150 mM sodium chloride, 3 mM EDTA 0.05% P-20, pH 7.4); assay running buffer was HBS-EP+ with 300 mM sodium chloride and 0.1 mg/mL BSA (Sigma A7906). Polyclonal goat anti-human Fc (Thermo Scientific prod#31125) was first immobilized to the biosensor surface in 10 mM sodium acetate, pH 4.5 using standard BIAcore amine coupling reagents (N-ethyl-N′-dimethylamino-propylcarbodiimide, EDC; N-hydroxysuccinimide, NHS; and ethanolamine HCl, pH 8.5). For binding kinetics assay a series of cycles were performed, each cycle consisted of 1) mAb capture, 2) Ag or buffer injection, 3) dissociation phase and 4) regeneration. Briefly, anti-VEGF antibodies were captured on parallel surfaces at a low flow rate of 10 μL/min. Capture levels were kept low to minimize avidity due to the dimeric nature of VEGF. No capture of the antibody was made on the reference surface to serve for primary referencing and as a negative control. Subsequently, VEGF or buffer only was injected to all flow cells at a flow rate of 80 μL/min for three minutes to monitor association followed by a 20-minute flow of assay rinning buffer at a flow rate of 80 μL/min to monitor dissociation. […] At the end of each cycle the surface was regenerated with 10 mM glycine, pH 1.5 at a flow rate of 60 μL/min in pulses of 60 and 10 sec. Binding data were fit to the 1:1 Langmuir model with mass transport term included using Biacore T200 Evaluation Software to determine the binding constants.

T2 sequence (P15692 other isoform, or with tags, fused parts or gaps limits assumed): as above

Row | Binder | Kd | koff | kon
14 | B3 | 1.59 nM | 0.000358 s⁻¹ | 225000 M⁻¹ s⁻¹
15 | B6 | 0.522 nM | 0.00021 s⁻¹ | 401000 M⁻¹ s⁻¹
16 | B7 | 0.091 nM | 2.48e-05 s⁻¹ | 272000 M⁻¹ s⁻¹
17 | B14 | 0.309 nM | 5.74e-05 s⁻¹ | 186000 M⁻¹ s⁻¹
18 | B15 | 0.303 nM | 5.14e-05 s⁻¹ | 170000 M⁻¹ s⁻¹
19 | B16 | 0.644 nM | 6.76e-05 s⁻¹ | 105000 M⁻¹ s⁻¹

What follows are binders tested against T1, VEGF (R&D systems, Minneapolis, Minn.) (assay: BIAcore SPR, WT/mutant).
Description: as §1

Row | Binder | Δkoff
20 | B1 | 1.8 fold
21 | B2 | 1.3 fold
22 | B3 | 1.6 fold
23 | B4 | 2 fold
24 | B5 | 1.5 fold
25 | B6 | 1.4 fold
26 | B7 | 2.9 fold
27 | B8 | 2.2 fold
28 | B9 | 0.9 fold
29 | B10 | 1.4 fold
30 | B11 | 1.6 fold
31 | B12 | 1.9 fold
32 | B13 | 1.8 fold

Each binder was assayed against T1, VEGF (R&D systems, Minneapolis, Minn.) (assay: BIAcore SPR, mutant/WT).
Description: as §1

Row | Binder | Δkon
33 | B1 | 10.4 fold
34 | B2 | 5.4 fold
35 | B3 | 1.6 fold
36 | B4 | 6.9 fold
37 | B5 | 7.4 fold
38 | B6 | 2 fold
39 | B7 | 1.2 fold
40 | B8 | 4.6 fold
41 | B9 | 1.3 fold
42 | B10 | 5 fold
43 | B11 | 1.4 fold
44 | B12 | 8.9 fold
45 | B13 | 3.6 fold

Each binder was assayed against T2, human VEGF-A residues 27-191 of … (assay: BIAcore SPR, KD WT/KD mutant).
Description: as §2

Row | Binder | affinity improvement
46 | B3 | 0.3 fold
47 | B6 | 0.8 fold
48 | B7 | 4.7 fold
49 | B14 | 1.6 fold
50 | B15 | 1.7 fold
51 | B16 | 1.3 fold

The binders below were run against T1, VEGF (R&D systems, Minneapolis, Minn.) (assay: BIAcore SPR, improvement over WT).
Description: as §1

Row | Binder | ΔKD
52 | B1 | 18.6 fold
53 | B2 | 7 fold
54 | B3 | 2.6 fold
55 | B4 | 14.1 fold
56 | B5 | 11 fold
57 | B6 | 2.8 fold
58 | B7 | 3.4 fold
59 | B8 | 9.6 fold
60 | B9 | 1.1 fold
61 | B10 | 7 fold
62 | B11 | 2.3 fold
63 | B12 | 15.3 fold
64 | B13 | 6.3 fold

What follows are binders tested against T3, unlabeled human VEGF (ELISA coat) (human, UniProt P15692-4 27-191, limits assumed) (assay: ELISA 1 hr, EC50 WT/EC50 mutant).
Description: (§3) To detect identified variants binding to antigen, ELISA plates (Nunc-Immuno MaxiSorp plates, Nalge Nunc, Rochester, N.Y.) were coated overnight at 4° C. with unlabeled human VEGF at 1 μg/mL in 0.2 M sodium carbonate-bicarbonate buffer (pH 9.4, Pierce, Rockford, Ill.). The plates were then blocked with SuperBlock Blocking Buffer (Pierce, Rockford, Ill.) for 30 min and washed with Washing Buffer (PBS containing 0.1% Tween 20). All the washing steps were performed for three times. […] The plates were washed and 100 μL of goat anti-human kappa HRP-conjugated antibody (Southern Biotech, Birmingham, Ala.) diluted at 1:1000 in ELISA buffer was added to each well. After 30 minutes of incubation, plates were washed and bound antibodies were detected by addition of TMB 1 Component HRP Microwell substrate (BioFx #TMBW-1000-01). The reaction was terminated by addition of 100 μL/well of 650 nM Stop Reagent for TMB Microwell substrate and the absorbance was measured at 650 nm using a VERSAmax microplate reader (Molecular Devices, Sunnyvale, Calif.). Data were fitted using nonlinear regression with the software […]

T3 sequence (P15692 other isoform, or with tags, fused parts or gaps limits assumed): as above

Row | Binder | ELISA 1hr binding
65 | B3 | 4.3 fold
66 | B6 | 2.7 fold
67 | B7 | 0.7 fold
68 | B14 | 2.9 fold
69 | B15 | 2.4 fold
70 | B16 | 2.9 fold

What follows are binders tested against T3, unlabeled human VEGF (ELISA coat) (assay: ELISA overnight, EC50 WT/EC50 mutant).
Description: as §3

Row | Binder | ELISA o/n binding
71 | B3 | 3.6 fold
72 | B6 | 1 fold
73 | B7 | 0.3 fold
74 | B14 | 4.5 fold
75 | B15 | 4 fold
76 | B16 | 3.2 fold
